Test results taken from patent US20160130361A1.
Blank lines part the entries; values can stand above or below the substance they belong to.

How the values were obtained:
[1] = biological target: BDD rFVIII (B domain deleted recombinant Factor VIII) (human) (UniProt P00451); assay: SPR (ProteOn XPR36), mean of triplicate
[2] = biological target: rFVIIIFc; assay: SPR (ProteOn XPR36), mean of triplicate
[3] = biological target: rFVIIIFc; assay: method not printed on the sheet or in the legend (affinities of Example 3 are by SPR); SD 0.0023 printed in the same row
[4] = biological target: BDD rFVIII (B domain deleted recombinant Factor VIII) (human) (UniProt P00451); assay: method not printed on the sheet or in the legend (affinities of Example 3 are by SPR); SD 0.0073 printed in the same row
[5] = biological target: BDD rFVIII (B domain deleted recombinant Factor VIII) (human) (UniProt P00451); assay: SPR, ProteOn XPR36; run 1 of 3 (top panel) [continued]
[6] = biological target: rFVIIIFc; assay: as above
[7] = biological target: BDD rFVIII (B domain deleted recombinant Factor VIII) (human) (UniProt P00451); assay: SPR, ProteOn XPR36; run 2 of 3 (middle panel) [continued]
[8] = biological target: rFVIIIFc; assay: as above
[9] = biological target: BDD rFVIII (B domain deleted recombinant Factor VIII) (human) (UniProt P00451); assay: SPR, ProteOn XPR36; run 3 of 3 (bottom panel) [continued]
[10] = biological target: rFVIIIFc; assay: as above
[11] = biological target: BDD rFVIII (B domain deleted recombinant Factor VIII) (human) (UniProt P00451); assay: SPR, ProteOn XPR36; run 1 of 3 (top panel)
[12] = biological target: rFVIIIFc; assay: SPR, ProteOn XPR36; run 1 of 3 (top panel)
[13] = biological target: BDD rFVIII (B domain deleted recombinant Factor VIII) (human) (UniProt P00451); assay: SPR, ProteOn XPR36; run 2 of 3 (middle panel)
[14] = biological target: rFVIIIFc; assay: SPR, ProteOn XPR36; run 2 of 3 (middle panel)
[15] = biological target: BDD rFVIII (B domain deleted recombinant Factor VIII) (human) (UniProt P00451); assay: SPR, ProteOn XPR36; run 3 of 3 (bottom panel)
[16] = biological target: rFVIIIFc; assay: SPR, ProteOn XPR36; run 3 of 3 (bottom panel)

Sequence of UniProt P00451 (P00451 other isoform, or with tags, fused parts or gaps): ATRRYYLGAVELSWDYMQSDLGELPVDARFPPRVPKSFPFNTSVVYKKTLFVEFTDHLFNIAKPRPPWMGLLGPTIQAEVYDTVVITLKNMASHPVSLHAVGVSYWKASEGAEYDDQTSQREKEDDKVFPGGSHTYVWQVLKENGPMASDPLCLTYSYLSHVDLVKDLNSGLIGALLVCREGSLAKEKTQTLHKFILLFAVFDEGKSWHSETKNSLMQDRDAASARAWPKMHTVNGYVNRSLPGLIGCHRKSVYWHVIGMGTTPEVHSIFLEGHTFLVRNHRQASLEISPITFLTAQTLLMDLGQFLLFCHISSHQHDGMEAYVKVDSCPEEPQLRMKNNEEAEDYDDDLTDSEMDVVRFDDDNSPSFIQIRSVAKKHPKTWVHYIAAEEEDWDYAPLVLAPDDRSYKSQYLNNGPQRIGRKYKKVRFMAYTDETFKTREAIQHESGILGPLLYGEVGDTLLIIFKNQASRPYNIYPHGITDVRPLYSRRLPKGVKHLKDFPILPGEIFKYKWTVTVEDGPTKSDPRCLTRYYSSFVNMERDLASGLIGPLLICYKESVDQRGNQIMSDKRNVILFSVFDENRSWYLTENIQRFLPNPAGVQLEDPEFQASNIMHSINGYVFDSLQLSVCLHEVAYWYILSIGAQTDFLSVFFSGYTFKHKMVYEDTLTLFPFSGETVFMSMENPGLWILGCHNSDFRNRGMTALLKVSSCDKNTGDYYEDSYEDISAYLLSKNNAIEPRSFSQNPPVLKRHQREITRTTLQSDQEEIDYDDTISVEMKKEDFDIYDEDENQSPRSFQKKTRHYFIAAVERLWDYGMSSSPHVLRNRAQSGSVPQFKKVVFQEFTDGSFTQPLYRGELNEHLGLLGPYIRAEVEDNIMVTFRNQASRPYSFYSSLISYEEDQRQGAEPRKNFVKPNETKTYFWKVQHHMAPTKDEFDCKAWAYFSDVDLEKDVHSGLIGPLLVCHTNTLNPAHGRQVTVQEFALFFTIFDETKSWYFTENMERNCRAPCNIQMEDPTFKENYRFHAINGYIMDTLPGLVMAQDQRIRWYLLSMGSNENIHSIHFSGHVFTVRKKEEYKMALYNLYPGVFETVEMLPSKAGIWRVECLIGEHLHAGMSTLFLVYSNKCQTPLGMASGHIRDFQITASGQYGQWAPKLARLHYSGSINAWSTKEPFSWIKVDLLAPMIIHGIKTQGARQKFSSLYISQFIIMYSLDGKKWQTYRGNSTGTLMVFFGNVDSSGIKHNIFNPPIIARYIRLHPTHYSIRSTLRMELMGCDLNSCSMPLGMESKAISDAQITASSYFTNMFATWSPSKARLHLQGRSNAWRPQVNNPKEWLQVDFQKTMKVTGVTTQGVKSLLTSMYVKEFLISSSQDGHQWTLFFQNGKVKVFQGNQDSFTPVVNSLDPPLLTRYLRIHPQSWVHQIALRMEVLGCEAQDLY

Substance: ESH4 (antibody)
Kd [1]: 0.248 nM
Kd [2]: 0.277 nM

Substance: ESH8 Fab
Kd [3]: 0.142 nM
Kd [4]: 0.104 nM

Substance: GMA012 (antibody)
Kd [1]: 0.325 nM
Kd [2]: 0.474 nM

Substance: GMA8014 (antibody)
Kd [1]: 0.118 nM
Kd [2]: 0.118 nM
Kd [11]: 0.126 nM
koff [11]: 0.000127 s⁻¹
kon [11]: 1e+06 M⁻¹ s⁻¹
Kd [12]: 0.127 nM
koff [12]: 0.000103 s⁻¹
kon [12]: 809000 M⁻¹ s⁻¹
Kd [13]: 0.117 nM
koff [13]: 0.000131 s⁻¹
kon [13]: 1.12e+06 M⁻¹ s⁻¹
Kd [14]: 0.139 nM
koff [14]: 0.000104 s⁻¹
kon [14]: 746000 M⁻¹ s⁻¹
Kd [15]: 0.114 nM
koff [15]: 0.000119 s⁻¹
kon [15]: 1.04e+06 M⁻¹ s⁻¹
Kd [16]: 0.12 nM
koff [16]: 0.000104 s⁻¹
kon [16]: 865000 M⁻¹ s⁻¹

The remaining substances from weak to strong by Kd [1], led by results:

Kd [1]: 0.104 nM
Kd [2]: 0.142 nM
Substance: ESH8 (antibody)

Kd [1]: 0.0921 nM
Kd [2]: 0.0873 nM
Kd [5]: 0.0855 nM
koff [5]: 0.000131 s⁻¹
kon [5]: 1.53e+06 M⁻¹ s⁻¹
Kd [6]: 0.0913 nM
koff [6]: 0.000133 s⁻¹
kon [6]: 1.46e+06 M⁻¹ s⁻¹
Kd [7]: 0.0897 nM
koff [7]: 0.000138 s⁻¹
kon [7]: 1.54e+06 M⁻¹ s⁻¹
Kd [8]: 0.0804 nM
koff [8]: 0.00012 s⁻¹
kon [8]: 1.49e+06 M⁻¹ s⁻¹
Kd [9]: 0.101 nM
koff [9]: 0.000143 s⁻¹
kon [9]: 1.42e+06 M⁻¹ s⁻¹
Kd [10]: 0.0902 nM
koff [10]: 0.000127 s⁻¹
kon [10]: 1.4e+06 M⁻¹ s⁻¹
Substance: GMA8011 (antibody)

Kd [1]: 0.0731 nM
Kd [2]: 0.0683 nM
Kd [5]: 0.077 nM
koff [5]: 0.000127 s⁻¹
kon [5]: 1.65e+06 M⁻¹ s⁻¹
Kd [6]: 0.0647 nM
koff [6]: 0.000102 s⁻¹
kon [6]: 1.58e+06 M⁻¹ s⁻¹
Kd [7]: 0.0722 nM
koff [7]: 0.000124 s⁻¹
kon [7]: 1.72e+06 M⁻¹ s⁻¹
Kd [8]: 0.0743 nM
koff [8]: 0.000118 s⁻¹
kon [8]: 1.59e+06 M⁻¹ s⁻¹
Kd [9]: 0.07 nM
koff [9]: 0.000119 s⁻¹
kon [9]: 1.7e+06 M⁻¹ s⁻¹
Kd [10]: 0.066 nM
koff [10]: 0.00011 s⁻¹
kon [10]: 1.66e+06 M⁻¹ s⁻¹
Substance: GMA8020 (antibody)
